{"source": "paper PMC5394133", "about": "(Clinical Drug Investigation, 2017)", "origin": "cited, not measured here", "conditions": "for Maximum concentration, mean / Total exposure, mean: total insulin concentration", "note": "Like-named read-outs stand apart in the source and are kept apart here.", "data": [{"substance": "Insulin lispro", "values": [{"measurement": "Maximum concentration, ratio thigh/abdomen", "setting": "0.2 U/kg s.c.", "value": 78, "unit": "%"}, {"measurement": "Maximum concentration, ratio upper arm/abdomen", "setting": "0.2 U/kg s.c.", "value": 67, "unit": "%"}, {"measurement": "Total exposure, ratio thigh/abdomen", "setting": "0.2 U/kg s.c.", "value": 92, "unit": "%"}, {"measurement": "Total exposure, ratio upper arm/abdomen", "setting": "0.2 U/kg s.c.", "value": 95, "unit": "%"}, {"measurement": "Maximum concentration, mean", "setting": "0.2 U/kg s.c., abdomen", "value": 589, "unit": "pmol/L"}, {"measurement": "Total exposure, mean", "setting": "0.2 U/kg s.c., abdomen", "value": 1.388, "unit": "nM·h"}, {"measurement": "Maximum concentration, mean", "setting": "0.2 U/kg s.c., thigh", "value": 458, "unit": "pmol/L"}, {"measurement": "Total exposure, mean", "setting": "0.2 U/kg s.c., thigh", "value": 1.277, "unit": "nM·h"}, {"measurement": "Maximum concentration, mean", "setting": "0.2 U/kg s.c., upper arm", "value": 395, "unit": "pmol/L"}, {"measurement": "Total exposure, mean", "setting": "0.2 U/kg s.c., upper arm", "value": 1.313, "unit": "nM·h"}]}, {"substance": "Insulin glulisine", "values": [{"measurement": "Maximum concentration, ratio thigh/abdomen", "setting": "s.c.", "value": 68, "unit": "%"}, {"measurement": "Maximum concentration, ratio upper arm/abdomen", "setting": "s.c.", "value": 82, "unit": "%"}, {"measurement": "Total exposure, ratio thigh/abdomen", "setting": "s.c.", "value": 93, "unit": "%"}, {"measurement": "Total exposure, ratio upper arm/abdomen", "setting": "s.c.", "value": 97, "unit": "%"}, {"measurement": "early exposure within 1 h after administration, lower for the thigh than for the abdomen", "setting": "s.c.", "value": "~ 40%"}, {"measurement": "early exposure within 1 h after administration, lower for the upper arm than for the abdomen", "setting": "s.c.", "value": "~ 20%"}]}, {"substance": "Insulin aspart", "values": [{"measurement": "Maximum concentration, ratio thigh/abdomen", "setting": "0.2 U/kg s.c.", "value": 84, "unit": "%"}, {"measurement": "Maximum concentration, ratio upper arm/abdomen", "setting": "0.2 U/kg s.c.", "value": 101, "unit": "%"}, {"measurement": "Total exposure, ratio thigh/abdomen", "setting": "0.2 U/kg s.c.", "value": 97, "unit": "%"}, {"measurement": "Total exposure, ratio upper arm/abdomen", "setting": "0.2 U/kg s.c.", "value": 105, "unit": "%"}, {"measurement": "Maximum concentration, mean", "setting": "0.2 U/kg s.c., abdomen", "value": 501, "unit": "pmol/L"}, {"measurement": "Total exposure, mean", "setting": "0.2 U/kg s.c., abdomen", "value": 1.3, "unit": "nM·h"}, {"measurement": "Maximum concentration, mean", "setting": "0.2 U/kg s.c., thigh", "value": 422, "unit": "pmol/L"}, {"measurement": "Total exposure, mean", "setting": "0.2 U/kg s.c., thigh", "value": 1.265, "unit": "nM·h"}, {"measurement": "Maximum concentration, mean", "setting": "0.2 U/kg s.c., upper arm", "value": 506, "unit": "pmol/L"}, {"measurement": "Total exposure, mean", "setting": "0.2 U/kg s.c., upper arm", "value": 1.361, "unit": "nM·h"}]}]}
